B1: Colorectal mutant cancer protein (Homo sapiens), P23508 (parent)
chain: MNSGVAMKYGNDSSAELSELHSAALASLKGDIVELNKRLQQTERERDLLEKKLAKAQCEQSHLMREHEDVQERTTLRYEERITELHSVIAELNKKIDRLQGTTIREEDEYSELRSELSQSQHEVNEDSRSMDQDQTSVSIPENQSTMVTADMDNCSDLNSELQRVLTGLENVVCGRKKSSCSLSVAEVDKHIEQLTTASEHCDLAIKTVEEIEGVLGRDLYPNLAEERSRWEKELAGLREENESLTAMLCSKEEELNRTKATMNAIREERDRLRRRVRELQTRLQSVQATGPSSPGRLTSTNRPINPSTGELSTSSSSNDIPIAKIAERVKLSKTRSESSSSDRPVLGSEISSIGVSSSVAEHLAHSLQDCSNIQEIFQTLYSHGSAISESKIREFEVETERLNSRIEHLKSQNDLLTITLEECKSNAERMSMLVGKYESNATALRLALQYSEQCIEAYELLLALAESEQSLILGQFRAAGVGSSPGDQSGDENITQMLKRAHDCRKTAENAAKALLMKLDGSCGGAFAVAGCSVQPWESLSSNSHTSTTSSTASSCDTEFTKEDEQRLKDYIQQLKNDRAAVKLTMLELESIHIDPLSYDVKPRGDSQRLDLENAVLMQELMAMKEEMAELKAQLYLLEKEKKALELKLSTREAQEQAYLVHIEHLKSEVEEQKEQRMRSLSSTSSGSKDKPGKECADAASPALSLAELRTTCSENELAAEFTNAIRREKKLKARVQELVSALERLTKSSEIRHQQSAEFVNDLKRANSNLVAAYEKAKKKHQNKLKKLESQMMAMVERHETQVRMLKQRIALLEEENSRPHTNETSL
B2: Protein FAM163B (Homo sapiens), P0C2L3 (parent)
chain: MTAGTVVITGGILATVILLCIIAVLCYCRLQYYCCKKDESEEDEEEPDFAVHSHLPPLHSNRNLVLTNGPALYPTASTSFSQKSPQARALCRSCSHCEPPTFFLQEPPEEEEDVLNGGERVLYKSVSQEDVELPPGGFGGLQALNPNRLSAMREAFARSRSISTDV
B3: Guanylate cyclase soluble subunit alpha-2 (Homo sapiens), P33402 (parent)
chain: MSRRKISSESFSSLGSDYLETSPEEEGECPLSRLCWNGSRSPPGPLEPSPAAAAAAAAPAPTPAASAAAAAATAGARRVQRRRRVNLDSLGESISRLTAPSPQTIQQTLKRTLQYYEHQVIGYRDAEKNFHNISNRCSYADHSNKEEIEDVSGILQCTANILGLKFEEIQKRFGEEFFNICFHENERVLRAVGGTLQDFFNGFDALLEHIRTSFGKQATLESPSFLCKELPEGTLMLHYFHPHHIVGFAMLGMIKAAGKKIYRLDVEVEQVANEKLCSDVSNPGNCSCLTFLIKECENTNIMKNLPQGTSQVPADLRISINTFCRAFPFHLMFDPSMSVLQLGEGLRKQLRCDTHKVLKFEDCFEIVSPKVNATFERVLLRLSTPFVIRTKPEASGSENKDKVMEVKGQMIHVPESNSILFLGSPCVDKLDELMGRGLHLSDIPIHDATRDVILVGEQAKAQDGLKKRMDKLKATLERTHQALEEEKKKTVDLLYSIFPGDVAQQLWQGQQVQARKFDDVTMLFSDIVGFTAICAQCTPMQVISMLNELYTRFDHQCGFLDIYKVETIGDAYCVAAGLHRKSLCHAKPIALMALKMMELSEEVLTPDGRPIQMRIGIHSGSVLAGVVGVRMPRYCLFGNNVTLASKFESGSHPRRINVSPTTYQLLKREESFTFIPRSREELPDNFPKEIPGICYFLEVRTGPKPPKPSLSSSRIKKVSYNIGTMFLRETSL
B4: Copine-8 (Homo sapiens), Q86YQ8 (parent)
chain: MDSRYNSTAGIGDLNQLSAAIPATRVEVSVSCRNLLDRDTFSKSDPICVLYVQGVGNKEWREFGRTEVIDNTLNPDFVRKFILDYFFEERENLRFDLYDVDSKSPNLSKHDFLGQVFCTLGEIVGSQGSRLEKPIVGIPGKKCGTIILTAEELNCCRDAVLMQFCANKLDKKDFFGKSDPFLVFYRSNEDGSFTICHKTEVVKNTLNPVWQAFKISVRALCNGDYDRTIKVEVYDWDRDGSHDFIGEFTTSYRELSRGQSQFNVYEVVNPKKKGKKKKYTNSGTVTLLSFLVETEVSFLDYIKGGTQINFTVAIDFTASNGNPAQPTSLHYMNPYQLNAYGMALKAVGEIVQDYDSDKMFPALGFGAKLPPDGRISHEFALNGNPQNPYCDGIEGVMEAYYRSLKSVQLYGPTNFAPVINHVARYASSVKDGSQYFVLLIVTDGVISDMAQTKESIVNASKLPMSIIIVGVGPAEFDAMVELDGDDVRVSSRGKYAERDIVQFVPFRDYIDRSGNHILSMARLAKDVLAEIPEQFLSYMRARGIKPSPAPPPYTPPTHVLQTQI
B5: Plasma membrane calcium-transporting ATPase 2 (Homo sapiens), Q01814 (parent)
chain: MGDMTNSDFYSKNQRNESSHGGEFGCTMEELRSLMELRGTEAVVKIKETYGDTEAICRRLKTSPVEGLPGTAPDLEKRKQIFGQNFIPPKKPKTFLQLVWEALQDVTLIILEIAAIISLGLSFYHPPGEGNEGCATAQGGAEDEGEAEAGWIEGAAILLSVICVVLVTAFNDWSKEKQFRGLQSRIEQEQKFTVVRAGQVVQIPVAEIVVGDIAQVKYGDLLPADGLFIQGNDLKIDESSLTGESDQVRKSVDKDPMLLSGTHVMEGSGRMLVTAVGVNSQTGIIFTLLGAGGEEEEKKDKKGVKKGDGLQLPAADGAAASNAADSANASLVNGKMQDGNVDASQSKAKQQDGAAAMEMQPLKSAEGGDADDRKKASMHKKEKSVLQGKLTKLAVQIGKAGLVMSAITVIILVLYFTVDTFVVNKKPWLPECTPVYVQYFVKFFIIGVTVLVVAVPEGLPLAVTISLAYSVKKMMKDNNLVRHLDACETMGNATAICSDKTGTLTTNRMTVVQAYVGDVHYKEIPDPSSINTKTMELLINAIAINSAYTTKILPPEKEGALPRQVGNKTECGLLGFVLDLKQDYEPVRSQMPEEKLYKVYTFNSVRKSMSTVIKLPDESFRMYSKGASEIVLKKCCKILNGAGEPRVFRPRDRDEMVKKVIEPMACDGLRTICVAYRDFPSSPEPDWDNENDILNELTCICVVGIEDPVRPEVPEAIRKCQRAGITVRMVTGDNINTARAIAIKCGIIHPGEDFLCLEGKEFNRRIRNEKGEIEQERIDKIWPKLRVLARSSPTDKHTLVKGIIDSTHTEQRQVVAVTGDGTNDGPALKKADVGFAMGIAGTDVAKEASDIILTDDNFSSIVKAVMWGRNVYDSISKFLQFQLTVNVVAVIVAFTGACITQDSPLKAVQMLWVNLIMDTFASLALATEPPTETLLLRKPYGRNKPLISRTMMKNILGHAVYQLALIFTLLFVGEKMFQIDSGRNAPLHSPPSEHYTIIFNTFVMMQLFNEINARKIHGERNVFDGIFRNPIFCTIVLGTFAIQIVIVQFGGKPFSCSPLQLDQWMWCIFIGLGELVWGQVIATIPTSRLKFLKEAGRLTQKEEIPEEELNEDVEEIDHAERELRRGQILWFRGLNRIQTQIRVVKAFRSSLYEGLEKPESRTSIHNFMAHPEFRIEDSQPHIPLIDDTDLEEDAALKQNSSPPSSLNKNNSAIDSGINLTTDTSKSATSSSPGSPIHSLETSL
B6: Disintegrin and metalloproteinase domain-containing protein 22 (Homo sapiens), Q9P0K1 (parent)
chain: MQAAVAVSVPFLLLCVLGTCPPARCGQAGDASLMELEKRKENRFVERQSIVPLRLIYRSGGEDESRHDALDTRVRGDLGGPQLTHVDQASFQVDAFGTSFILDVVLNHDLLSSEYIERHIEHGGKTVEVKGGEHCYYQGHIRGNPDSFVALSTCHGLHGMFYDGNHTYLIEPEENDTTQEDFHFHSVYKSRLFEFSLDDLPSEFQQVNITPSKFILKPRPKRSKRQLRRYPRNVEEETKYIELMIVNDHLMFKKHRLSVVHTNTYAKSVVNMADLIYKDQLKTRIVLVAMETWATDNKFAISENPLITLREFMKYRRDFIKEKSDAVHLFSGSQFESSRSGAAYIGGICSLLKGGGVNEFGKTDLMAVTLAQSLAHNIGIISDKRKLASGECKCEDTWSGCIMGDTGYYLPKKFTQCNIEEYHDFLNSGGGACLFNKPSKLLDPPECGNGFIETGEECDCGTPAECVLEGAECCKKCTLTQDSQCSDGLCCKKCKFQPMGTVCREAVNDCDIRETCSGNSSQCAPNIHKMDGYSCDGVQGICFGGRCKTRDRQCKYIWGQKVTASDKYCYEKLNIEGTEKGNCGKDKDTWIQCNKRDVLCGYLLCTNIGNIPRLGELDGEITSTLVVQQGRTLNCSGGHVKLEEDVDLGYVEDGTPCGPQMMCLEHRCLPVASFNFSTCLSSKEGTICSGNGVCSNELKCVCNRHWIGSDCNTYFPHNDDAKTGITLSGNGVAGTNIIIGIIAGTILVLALILGITAWGYKNYREQRQLPQGDYVKKPGDGDSFYSDIPPGVSTNSASSSKKRSNGLSHSWSERIPDTKHISDICENGRPRSNSWQGNLGGNKKKIRGKRFRPRSNSTETLSPAKSPSSSTGSIASSRKYPYPMPPLPDEDKKVNRQSARLWETSI

Variants of: B1
Details: with scrib_human SCRIB
Target sequence in this assay (Q14160 whole entry): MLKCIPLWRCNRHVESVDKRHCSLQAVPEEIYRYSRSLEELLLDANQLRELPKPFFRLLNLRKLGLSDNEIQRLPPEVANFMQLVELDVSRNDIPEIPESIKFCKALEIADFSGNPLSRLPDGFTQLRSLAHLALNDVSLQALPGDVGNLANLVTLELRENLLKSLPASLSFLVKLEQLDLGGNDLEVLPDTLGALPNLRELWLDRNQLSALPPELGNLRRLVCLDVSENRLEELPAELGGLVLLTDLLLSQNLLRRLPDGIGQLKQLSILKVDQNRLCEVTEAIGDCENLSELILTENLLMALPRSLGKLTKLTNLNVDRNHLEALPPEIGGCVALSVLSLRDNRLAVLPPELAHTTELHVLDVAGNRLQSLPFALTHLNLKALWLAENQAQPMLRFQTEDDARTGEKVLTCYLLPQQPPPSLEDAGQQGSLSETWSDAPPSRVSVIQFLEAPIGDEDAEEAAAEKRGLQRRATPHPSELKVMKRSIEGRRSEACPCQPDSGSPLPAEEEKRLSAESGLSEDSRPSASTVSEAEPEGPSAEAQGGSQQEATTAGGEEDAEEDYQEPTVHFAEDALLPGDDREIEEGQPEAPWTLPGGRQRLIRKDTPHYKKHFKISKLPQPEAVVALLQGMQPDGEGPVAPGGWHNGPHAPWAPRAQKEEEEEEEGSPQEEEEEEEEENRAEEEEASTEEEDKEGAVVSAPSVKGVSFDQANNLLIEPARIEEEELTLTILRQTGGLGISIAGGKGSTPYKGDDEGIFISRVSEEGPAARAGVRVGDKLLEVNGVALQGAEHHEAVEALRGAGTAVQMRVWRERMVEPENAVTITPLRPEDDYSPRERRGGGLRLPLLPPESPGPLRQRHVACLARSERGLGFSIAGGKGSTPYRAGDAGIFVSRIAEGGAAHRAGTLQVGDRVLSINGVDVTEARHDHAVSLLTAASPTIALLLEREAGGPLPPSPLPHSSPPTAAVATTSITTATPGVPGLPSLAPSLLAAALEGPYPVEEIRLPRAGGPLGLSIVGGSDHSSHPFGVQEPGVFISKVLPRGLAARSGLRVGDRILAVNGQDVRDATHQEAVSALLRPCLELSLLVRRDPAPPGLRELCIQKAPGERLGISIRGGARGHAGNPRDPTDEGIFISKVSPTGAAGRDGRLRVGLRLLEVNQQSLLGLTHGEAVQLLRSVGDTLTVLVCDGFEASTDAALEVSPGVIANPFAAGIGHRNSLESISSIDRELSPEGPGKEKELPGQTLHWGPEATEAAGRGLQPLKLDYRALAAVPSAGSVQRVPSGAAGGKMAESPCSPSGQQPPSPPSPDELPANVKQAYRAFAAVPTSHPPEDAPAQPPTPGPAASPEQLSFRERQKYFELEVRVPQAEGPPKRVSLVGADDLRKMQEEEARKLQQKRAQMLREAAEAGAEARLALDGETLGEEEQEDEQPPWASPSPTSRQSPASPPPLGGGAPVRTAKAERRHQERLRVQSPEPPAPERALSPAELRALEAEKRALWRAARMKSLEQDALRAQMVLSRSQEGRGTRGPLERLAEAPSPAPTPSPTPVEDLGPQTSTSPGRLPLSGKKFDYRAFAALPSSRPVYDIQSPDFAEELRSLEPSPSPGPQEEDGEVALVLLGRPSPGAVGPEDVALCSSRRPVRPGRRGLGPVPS

Row | Variant | effect of a mutation on the interaction
1 | S828E | increasing interaction strength

Variants of: B1
Details: with shan1_human SHANK1, Q9Y566
shan1_human SHANK1, Q9Y566, sequence (Q9Y566 whole entry): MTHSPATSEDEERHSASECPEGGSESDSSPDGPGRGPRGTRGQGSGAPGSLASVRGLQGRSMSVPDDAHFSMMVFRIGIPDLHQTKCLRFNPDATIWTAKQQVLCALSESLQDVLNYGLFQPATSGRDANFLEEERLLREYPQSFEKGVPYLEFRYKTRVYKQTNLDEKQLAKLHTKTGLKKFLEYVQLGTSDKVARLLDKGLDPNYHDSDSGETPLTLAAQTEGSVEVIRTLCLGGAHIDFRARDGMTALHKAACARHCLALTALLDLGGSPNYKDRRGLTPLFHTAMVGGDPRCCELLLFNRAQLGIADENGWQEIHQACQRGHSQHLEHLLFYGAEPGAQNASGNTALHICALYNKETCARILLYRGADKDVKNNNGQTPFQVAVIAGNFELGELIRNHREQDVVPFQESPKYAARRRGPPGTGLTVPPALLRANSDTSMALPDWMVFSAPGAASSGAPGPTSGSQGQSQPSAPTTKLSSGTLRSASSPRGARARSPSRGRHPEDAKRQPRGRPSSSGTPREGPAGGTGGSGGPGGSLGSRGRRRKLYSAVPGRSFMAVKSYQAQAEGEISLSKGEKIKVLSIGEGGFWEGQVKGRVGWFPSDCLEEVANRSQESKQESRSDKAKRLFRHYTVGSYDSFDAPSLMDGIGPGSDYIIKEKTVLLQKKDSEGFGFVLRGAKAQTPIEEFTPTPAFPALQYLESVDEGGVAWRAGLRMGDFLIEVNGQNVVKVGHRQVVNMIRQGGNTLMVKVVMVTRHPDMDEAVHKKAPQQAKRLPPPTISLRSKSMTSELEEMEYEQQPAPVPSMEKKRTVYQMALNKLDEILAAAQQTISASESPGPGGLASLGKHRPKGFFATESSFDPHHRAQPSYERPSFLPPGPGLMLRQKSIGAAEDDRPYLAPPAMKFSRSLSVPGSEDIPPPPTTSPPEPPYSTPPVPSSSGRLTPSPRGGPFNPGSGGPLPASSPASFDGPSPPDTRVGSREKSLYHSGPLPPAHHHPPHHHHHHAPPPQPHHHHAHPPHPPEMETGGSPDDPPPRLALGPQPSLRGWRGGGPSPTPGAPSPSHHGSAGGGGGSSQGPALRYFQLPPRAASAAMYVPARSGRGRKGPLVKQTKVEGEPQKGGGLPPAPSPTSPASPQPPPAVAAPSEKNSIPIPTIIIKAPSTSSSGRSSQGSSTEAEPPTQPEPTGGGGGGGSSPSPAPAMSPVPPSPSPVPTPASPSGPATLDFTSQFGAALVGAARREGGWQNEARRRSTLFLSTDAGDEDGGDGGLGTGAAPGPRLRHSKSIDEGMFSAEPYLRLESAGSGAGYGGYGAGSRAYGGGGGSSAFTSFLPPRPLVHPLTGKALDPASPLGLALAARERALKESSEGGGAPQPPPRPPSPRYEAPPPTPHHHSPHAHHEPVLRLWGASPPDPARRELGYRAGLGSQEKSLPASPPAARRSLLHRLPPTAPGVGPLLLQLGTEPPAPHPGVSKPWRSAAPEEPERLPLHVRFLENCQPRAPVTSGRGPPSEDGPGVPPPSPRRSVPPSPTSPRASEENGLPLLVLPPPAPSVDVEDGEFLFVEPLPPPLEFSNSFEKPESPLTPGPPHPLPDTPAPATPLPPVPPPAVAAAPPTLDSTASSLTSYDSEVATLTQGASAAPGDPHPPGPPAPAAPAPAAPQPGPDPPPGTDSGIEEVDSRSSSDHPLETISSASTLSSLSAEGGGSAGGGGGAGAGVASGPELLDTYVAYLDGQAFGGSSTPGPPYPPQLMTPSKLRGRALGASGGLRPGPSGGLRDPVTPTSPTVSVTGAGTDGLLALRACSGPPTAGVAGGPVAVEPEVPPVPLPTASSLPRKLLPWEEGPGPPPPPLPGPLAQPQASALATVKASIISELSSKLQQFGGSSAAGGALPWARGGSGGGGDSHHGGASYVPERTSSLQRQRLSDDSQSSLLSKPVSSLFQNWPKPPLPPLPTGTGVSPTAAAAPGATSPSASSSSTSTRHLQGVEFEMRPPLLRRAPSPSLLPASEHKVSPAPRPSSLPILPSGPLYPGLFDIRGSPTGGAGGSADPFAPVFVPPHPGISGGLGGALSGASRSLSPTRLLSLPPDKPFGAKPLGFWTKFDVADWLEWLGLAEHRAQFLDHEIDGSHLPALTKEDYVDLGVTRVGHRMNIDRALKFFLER

Row | Variant | effect of a mutation on the interaction
2 | S828E | decreasing interaction strength

Variants of: B1
Details: with dlg1_human DLG1, Q12959
Target sequence in this assay (Q12959 whole entry, looked up): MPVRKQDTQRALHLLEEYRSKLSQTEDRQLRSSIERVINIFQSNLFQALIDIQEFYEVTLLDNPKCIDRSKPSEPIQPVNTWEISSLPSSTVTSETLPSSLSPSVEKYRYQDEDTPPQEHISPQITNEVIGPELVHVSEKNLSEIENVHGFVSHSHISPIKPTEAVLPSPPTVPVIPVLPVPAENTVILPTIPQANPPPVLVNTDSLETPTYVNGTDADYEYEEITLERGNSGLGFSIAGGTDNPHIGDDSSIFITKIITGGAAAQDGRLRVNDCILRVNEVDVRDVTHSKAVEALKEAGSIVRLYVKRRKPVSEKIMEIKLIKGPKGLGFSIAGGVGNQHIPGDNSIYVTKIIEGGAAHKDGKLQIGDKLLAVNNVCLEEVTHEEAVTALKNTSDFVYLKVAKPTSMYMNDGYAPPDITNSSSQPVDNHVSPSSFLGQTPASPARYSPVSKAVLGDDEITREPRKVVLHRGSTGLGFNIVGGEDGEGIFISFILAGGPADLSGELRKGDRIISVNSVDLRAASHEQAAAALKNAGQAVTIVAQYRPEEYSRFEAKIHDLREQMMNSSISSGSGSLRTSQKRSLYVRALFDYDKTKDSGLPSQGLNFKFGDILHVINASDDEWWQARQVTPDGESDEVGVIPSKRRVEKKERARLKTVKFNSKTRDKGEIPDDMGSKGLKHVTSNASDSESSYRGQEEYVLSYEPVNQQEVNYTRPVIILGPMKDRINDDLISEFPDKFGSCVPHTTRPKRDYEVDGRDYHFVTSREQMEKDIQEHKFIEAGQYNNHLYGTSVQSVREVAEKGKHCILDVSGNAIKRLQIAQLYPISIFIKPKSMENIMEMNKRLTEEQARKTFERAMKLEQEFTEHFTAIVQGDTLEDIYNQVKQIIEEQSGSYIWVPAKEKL

Row | Variant | effect of a mutation on the interaction
3 | S828E | decreasing interaction strength

Variants of: B2
Details: with scrib_human SCRIB
Target sequence in this assay (Q14160 whole entry): as the sequence (Q14160 whole entry) above

Row | Variant | effect of a mutation on the interaction
4 | MTAGTVVITGGILATVILLCIIAVLCYCRLQYYCCKKDESEEDEEEPDFAVHSHLPPLHSNRNLVLTNGPALYPTASTSFSQKSPQARALCRSCSHCEPPTFFLQEPPEEEEDVLNGGERVLYKSVSQEDVELPPGGFGGLQALNPNRLSAMREAFARSRSISEDV | disrupting interaction strength

Variants of: B2
Details: with dlg1_human DLG1, Q12959
Target sequence in this assay (Q12959 whole entry, looked up): as the sequence (Q12959 whole entry, looked up) above

Row | Variant | effect of a mutation on the interaction
5 | MTAGTVVITGGILATVILLCIIAVLCYCRLQYYCCKKDESEEDEEEPDFAVHSHLPPLHSNRNLVLTNGPALYPTASTSFSQKSPQARALCRSCSHCEPPTFFLQEPPEEEEDVLNGGERVLYKSVSQEDVELPPGGFGGLQALNPNRLSAMREAFARSRSISEDV | disrupting interaction strength

Variants of: B2
Details: with scrib_human SCRIB
Remark: another data set of the same source
Target sequence in this assay (Q14160 whole entry): as the sequence (Q14160 whole entry) above

Row | Variant | effect of a mutation on the interaction
6 | MTAGTVVITGGILATVILLCIIAVLCYCRLQYYCCKKDESEEDEEEPDFAVHSHLPPLHSNRNLVLTNGPALYPTASTSFSQKSPQARALCRSCSHCEPPTFFLQEPPEEEEDVLNGGERVLYKSVSQEDVELPPGGFGGLQALNPNRLSAMREAFARSRSIETDV | with no effect

Variants of: B3
Details: with scrib_human SCRIB
Target sequence in this assay (Q14160 whole entry): as the sequence (Q14160 whole entry) above

Row | Variant | effect of a mutation on the interaction
7 | S731E | increasing interaction strength

Variants of: B4
Details: with scrib_human SCRIB
Target sequence in this assay (Q14160 whole entry): as the sequence (Q14160 whole entry) above

Row | Variant | effect of a mutation on the interaction
8 | MDSRYNSTAGIGDLNQLSAAIPATRVEVSVSCRNLLDRDTFSKSDPICVLYVQGVGNKEWREFGRTEVIDNTLNPDFVRKFILDYFFEERENLRFDLYDVDSKSPNLSKHDFLGQVFCTLGEIVGSQGSRLEKPIVGIPGKKCGTIILTAEELNCCRDAVLMQFCANKLDKKDFFGKSDPFLVFYRSNEDGSFTICHKTEVVKNTLNPVWQAFKISVRALCNGDYDRTIKVEVYDWDRDGSHDFIGEFTTSYRELSRGQSQFNVYEVVNPKKKGKKKKYTNSGTVTLLSFLVETEVSFLDYIKGGTQINFTVAIDFTASNGNPAQPTSLHYMNPYQLNAYGMALKAVGEIVQDYDSDKMFPALGFGAKLPPDGRISHEFALNGNPQNPYCDGIEGVMEAYYRSLKSVQLYGPTNFAPVINHVARYASSVKDGSQYFVLLIVTDGVISDMAQTKESIVNASKLPMSIIIVGVGPAEFDAMVELDGDDVRVSSRGKYAERDIVQFVPFRDYIDRSGNHILSMARLAKDVLAEIPEQFLSYMRARGIKPSPAPPPYTPPEHVLQTQI [T557E] | causing an interaction

Variants of: B5
Details: with scrib_human SCRIB
Target sequence in this assay (Q14160 whole entry): as the sequence (Q14160 whole entry) above

Row | Variant | effect of a mutation on the interaction
9 | T1241E | decreasing interaction strength
10 | S1238E;S1242E | with no effect
11 | S1242E | with no effect

Variants of: B5
Details: with scrib_human SCRIB
Remark: another data set of the same source

Row | Variant | effect of a mutation on the interaction
12 | S1238E | disrupting interaction strength
13 | S1242E | increasing interaction strength

Variants of: B6
Details: with scrib_human SCRIB

Row | Variant | effect of a mutation on the interaction
14 | S898E | decreasing interaction strength

From IntAct's records for PubMed 30126976
